Assay results as given in the supplement of paper PMC9112550, “Optimization of the antimicrobial peptide Bac7 by deep mutational scanning” (BMC Biology, 2022).

Test system: Escherichia coli TOP10
Assay: shrunken log2 fold change of peptide-encoding DNA abundance (4.5 h post-induction vs induction); higher = less antimicrobial activity (less host growth inhibition)
Conditions: time post-induction: 4.5 h; library: site-saturation at positions 5, 18, 19, 20
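Note: peptides expressed intracellularly from a pBAD plasmid library in pooled LB shake-flask culture, induced with 0.3% L-arabinose, DNA abundance read by NGS, three biological replicates, DESeq2 with apeglm shrinkage.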

Sequence | shrunken log2 fold change
RRIRARPPRLPRPRPRPDMTPRP | 0.723
RRIRARPPRLPRPRPRPDPIPRP | -0.521
RRIRARPPRLPRPRPRPDQLPRP | 0.421
RRIRARPPRLPRPRPRPDQSPRP | 0.113
RRIRARPPRLPRPRPRPDRRPRP | 0.086
RRIRARPPRLPRPRPRPDRYPRP | -0.474
RRIRARPPRLPRPRPRPDSKPRP | 0.149
RRIRARPPRLPRPRPRPDSQPRP | 0.0999
RRIRARPPRLPRPRPRPDTAPRP | 0.147
RRIRARPPRLPRPRPRPDTDPRP | 0.365
RRIRARPPRLPRPRPRPDTYPRP | -0.11
RRIRARPPRLPRPRPRPDVIPRP | 0.0534
RRIRARPPRLPRPRPRPDVNPRP | 0.0462
RRIRARPPRLPRPRPRPDVVPRP | -0.101
RRIRARPPRLPRPRPRPDWEPRP | 0.334
RRIRARPPRLPRPRPRPDYAPRP | 2.44
RRIRARPPRLPRPRPRPEAAPRP | 1.78
RRIRARPPRLPRPRPRPEAYPRP | 0.114
RRIRARPPRLPRPRPRPECGPRP | 1.23
RRIRARPPRLPRPRPRPECRPRP | 0.874
RRIRARPPRLPRPRPRPECVPRP | 1.07
RRIRARPPRLPRPRPRPEECPRP | 1.27
RRIRARPPRLPRPRPRPEEIPRP | 0.289
RRIRARPPRLPRPRPRPEEVPRP | 0.0554
RRIRARPPRLPRPRPRPEFKPRP | 0.0365
RRIRARPPRLPRPRPRPEGCPRP | 1.31
RRIRARPPRLPRPRPRPEILPRP | 0.74
RRIRARPPRLPRPRPRPEIPPRP | 0.3

Sequence | shrunken log2 fold change
RRIRARPPRLPRPRPRPEKAPRP | 0.046
RRIRARPPRLPRPRPRPELVPRP | 1.3
RRIRARPPRLPRPRPRPEMEPRP | 1.3
RRIRARPPRLPRPRPRPEMKPRP | 3.7
RRIRARPPRLPRPRPRPEMNPRP | 0.655
RRIRARPPRLPRPRPRPEQGPRP | 0.388
RRIRARPPRLPRPRPRPERDPRP | 0.613
RRIRARPPRLPRPRPRPETGPRP | 0.772
RRIRARPPRLPRPRPRPETLPRP | 1.15
RRIRARPPRLPRPRPRPETVPRP | 0.312
RRIRARPPRLPRPRPRPEVCPRP | 1.25
RRIRARPPRLPRPRPRPEVMPRP | 0.28
RRIRARPPRLPRPRPRPEVNPRP | 0.291
RRIRARPPRLPRPRPRPEYRPRP | 0.0382
RRIRARPPRLPRPRPRPFAFPRP | 0.552
RRIRARPPRLPRPRPRPFCLPRP | 0.0753
RRIRARPPRLPRPRPRPFDEPRP | 0.194
RRIRARPPRLPRPRPRPFDMPRP | 0.0608
RRIRARPPRLPRPRPRPFESPRP | 0.0991
RRIRARPPRLPRPRPRPFFTPRP | 0.617
RRIRARPPRLPRPRPRPFGPPRP | 0.0166
RRIRARPPRLPRPRPRPFHCPRP | 0.252
RRIRARPPRLPRPRPRPFHHPRP | -0.294
RRIRARPPRLPRPRPRPFIQPRP | 0.0556
RRIRARPPRLPRPRPRPFKCPRP | -0.0202
RRIRARPPRLPRPRPRPFKGPRP | -0.104
RRIRARPPRLPRPRPRPFKHPRP | -0.27
